Assay results reported in paper PMC7304853.
Like-named read-outs stand apart in the source and are kept apart here.

What was measured:
Assay in all cases: SPR
[1] = molecular target: mFcγRII extracellular domain from SCID mice (ly17.2 variant), 6xHis (mouse) (UniProt P08101)
[2] = molecular target: mFcγRII extracellular domain from NOD SCID mice (ly17.1 variant), 6xHis (mouse) (UniProt P08101)
hIgG2 #1 (human) [3] = molecular target: hIgG2 #1 (human)
mIgG1 #2 (mouse) [4] = molecular target: mIgG1 #2 (mouse)
mIgG1 #1 (mouse) [5] = molecular target: mIgG1 #1 (mouse)
hIgG1 #2 (human) [6] = molecular target: hIgG1 #2 (human)
mIgG2a #2 (mouse) [7] = molecular target: mIgG2a #2 (mouse)
hIgG2 #2 (human) [8] = molecular target: hIgG2 #2 (human)
hIgG1 #1 (human) [9] = molecular target: hIgG1 #1 (human)
mIgG2a #1 (mouse) [10] = molecular target: mIgG2a #1 (mouse)
hIgG2 #1 (human) [11] = molecular target: hIgG2 #1 (human); remark: listed apart in the source
mIgG1 #2 (mouse) [12] = molecular target: mIgG1 #2 (mouse); remark: listed apart in the source
mIgG1 #1 (mouse) [13] = molecular target: mIgG1 #1 (mouse); remark: listed apart in the source
hIgG1 #2 (human) [14] = molecular target: hIgG1 #2 (human); remark: listed apart in the source
mIgG2a #2 (mouse) [15] = molecular target: mIgG2a #2 (mouse); remark: listed apart in the source
hIgG2 #2 (human) [16] = molecular target: hIgG2 #2 (human); remark: listed apart in the source
hIgG1 #1 (human) [17] = molecular target: hIgG1 #1 (human); remark: listed apart in the source
mIgG2a #1 (mouse) [18] = molecular target: mIgG2a #1 (mouse); remark: listed apart in the source

Chain of UniProt P08101 (P08101 1-207, change not shown): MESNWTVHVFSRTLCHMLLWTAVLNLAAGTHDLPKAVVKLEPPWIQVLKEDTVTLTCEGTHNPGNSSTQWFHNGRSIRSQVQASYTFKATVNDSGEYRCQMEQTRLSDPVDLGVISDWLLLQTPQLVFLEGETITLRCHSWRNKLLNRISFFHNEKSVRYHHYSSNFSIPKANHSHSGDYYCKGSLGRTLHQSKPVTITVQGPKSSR

Rituximab mIgG1 (antibody)
Kd [1]: 2020 nM | Kd [2]: 2250 nM

Cetuximab (hIgG1) (antibody)
Kd [1]: 5420 nM | Kd [2]: 4380 nM

Rituximab mIgG2a (antibody)
Kd [1]: 2630 nM | Kd [2]: 2430 nM

B1: Recombinant mFcγRII (R&D systems) (receptor)
chain: THDLPKAVVKLEPPWIQVLKEDTVTLTCEGTHNPGNSSTQWFHNGRSIRSQVQASYTFKATVNDSGEYRCQMEQTRLSDPVDLGVISDWLLLQTPQLVFLEGETITLRCHSWRNKLLNRISFFHNEKSVRYHHYSSNFSIPKANHSHSGDYYCKGSLGRTLHQSKPVTITVQGPKSSRSLP
Kd (hIgG2 #1 (human) [3]): 210 nM | Kd (mIgG1 #2 (mouse) [4]): 3.62 nM | Kd (mIgG1 #1 (mouse) [5]): 2.77 nM | Kd (hIgG1 #2 (human) [6]): 79 nM | Kd (mIgG2a #2 (mouse) [7]): 24.1 nM | Kd (hIgG2 #2 (human) [8]): 218 nM | Kd (hIgG1 #1 (human) [9]): 49.2 nM | Kd (mIgG2a #1 (mouse) [10]): 23.6 nM | Kd (hIgG2 #1 (human) [11]): 7650 nM | Kd (mIgG1 #2 (mouse) [12]): 498 nM | Kd (mIgG1 #1 (mouse) [13]): 274 nM | Kd (hIgG1 #2 (human) [14]): 6610 nM | Kd (mIgG2a #2 (mouse) [15]): 1100 nM | Kd (hIgG2 #2 (human) [16]): 14500 nM | Kd (hIgG1 #1 (human) [17]): 3020 nM | Kd (mIgG2a #1 (mouse) [18]): 1180 nM
